One experiment concerns the target HLA-C*07:02. Nature of the experiment: IEDB peptide-MHC binding, purified MHC/direct/fluorescence; filed as Kd, often an IC50 or EC50 that approximates it; ≥ and ≤ were set here for values at or beyond the usual limits of such assays. Particulars: source organism: Shigella boydii Sb227.
The target of experiment [1] is HLA-B*51:01. The experiment in a line: IEDB peptide-MHC binding, purified MHC/competitive/fluorescence; filed as Kd, often an IC50 or EC50 that approximates it; ≥ and ≤ were set here for values at or beyond the usual limits of such assays. Particulars: source organism: Shigella boydii Sb227.
The next experiment deals with HLA-C*06:02. The experiment in a line: IEDB peptide-MHC binding, purified MHC/direct/fluorescence; filed as Kd, often an IC50 or EC50 that approximates it; ≥ and ≤ were set here for values at or beyond the usual limits of such assays. Particulars: source organism: Mus musculus.
In a further experiment the target is HLA-C*15:02. Described as above. Conditions: source organism: Mus musculus.
Another experiment addresses HLA-A*01:01. The experiment is described as above. Conditions: source organism: Brucella abortus.
The target of experiment [2] is HLA-A*02:01. The description is as above.
The next experiment concerns the target HLA-A*03:01. The description is as above.
For the next experiment, the target named is HLA-A*26:01. The experiment is described as above.
The target in another experiment is HLA-A*30:01. Described as above.
The next experiment has as its target HLA-A*31:01. Described as above.
Another experiment addresses HLA-A*69:01. The description is as above.
Another experiment has as its target HLA-B*07:02. Described as above. Particulars: source organism: Brucella abortus.
The target in another experiment is HLA-B*08:01. The description is as above. Particulars: source organism: Brucella melitensis.
In the next experiment the target is HLA-B*15:01. The description is as above.
A further experiment addresses HLA-B*27:05. Described as above. Particulars: source organism: Brucella abortus.
The next experiment concerns the target HLA-B*40:01. The description is as above. Particulars: source organism: Brucella abortus.
The target in a further experiment is HLA-B*44:02. The experiment is described as above. Conditions: source organism: Brucella abortus.
The target in a further experiment is HLA-B*58:01. Described as above. Conditions: source organism: Brucella abortus.
In experiment [3] the target is HLA-A*02:01. The experiment in a line: IEDB peptide-MHC binding, purified MHC/competitive/radioactivity; ≥ and ≤ were set here for values at or beyond the usual limits of such assays.
The next experiment concerns the target HLA-A*02:03. Nature of the experiment: IEDB peptide-MHC binding, purified MHC/direct/fluorescence; filed as Kd, often an IC50 or EC50 that approximates it; ≥ and ≤ were set here for values at or beyond the usual limits of such assays.
In the next experiment the target is HLA-A*02:11. The description is as above.
In the next experiment the target is HLA-A*02:12. The experiment is described as above.
In the next experiment the target is HLA-A*02:16. The experiment is described as above.
The target in another experiment is HLA-A*02:19. The experiment is described as above.
Another experiment has as its target HLA-A*24:03. Described as above.
The next experiment deals with HLA-A*68:02. Described as above.
The target of a further experiment is HLA-B*15:17. The description is as above.
For the next experiment, the target named is HLA-B*27:03. The description is as above.
For another experiment, the target named is HLA-B*39:01. The description is as above.
Another experiment concerns the target HLA-B*46:01. The experiment is described as above.
In experiment [4] the target is HLA-B*51:01. The experiment is described as above.
Another experiment addresses HLA-B*18:01. The experiment is described as above.
The target in a further experiment is HLA-B*57:01. Described as above.
For a further experiment, the target named is HLA-A*11:01. The description is as above. Particulars: source organism: Salmonella enterica subsp. enterica serovar Choleraesuis str. SC-B67.
The target in another experiment is HLA-A*29:02. Described as above. Particulars: source organism: Encephalitozoon cuniculi GB-M1.
A further experiment concerns the target HLA-B*15:42. Nature of the experiment: IEDB peptide-MHC binding, purified MHC/competitive/fluorescence; filed as Kd, often an IC50 or EC50 that approximates it; ≥ and ≤ were set here for values at or beyond the usual limits of such assays. Particulars: source organism: Encephalitozoon cuniculi GB-M1.
Another experiment deals with HLA-B*45:06. Described as above. Conditions: source organism: Encephalitozoon cuniculi GB-M1.
The next experiment concerns the target HLA-B*83:01. The experiment is described as above. Conditions: source organism: Encephalitozoon cuniculi GB-M1.
A further experiment addresses HLA-B*48:01. The experiment is described as above. Particulars: source organism: Giardia lamblia ATCC 50803.
The mark [5] stands for this setting: source organism: Brucella abortus.
[6] abbreviates: source organism: Salmonella enterica subsp. enterica serovar Virchow.
The mark [7] stands for this setting: source organism: Vibrio parahaemolyticus AQ3810.
[8] abbreviates: source organism: Salmonella enterica.
Where [9] appears, read: source organism: Encephalitozoon cuniculi GB-M1.

What is called Kd is the free concentration of one partner at which half of the binding sites on the other are occupied at equilibrium, for simple one-to-one binding. A high value points to lower affinity. Consider FPAWFAWIF, for which the Kd with HLA-C*07:02 and with HLA-B*51:01 [1] was not below 20 µM each time.
Turning to LWFRNHFVF, the Kd in the experiment with HLA-C*06:02 and in the experiment with HLA-C*15:02 was not below 20 µM in each case.
On to EKPPVRPIF, for which the Kd with HLA-A*01:01 was not below 20 µM; with HLA-A*02:01 [2] (setting [5]), not below 20 µM; in the experiment with HLA-A*03:01 (setting [5]), not below 20 µM; with HLA-A*26:01 (setting [5]), not below 20 µM; with HLA-A*30:01 (source organism: Brucella melitensis), 8.74 µM; with HLA-A*31:01 (setting [5]), not below 20 µM. For the same sequence, the Kd with HLA-A*69:01 (setting [5]) was not below 20 µM; with HLA-B*07:02, not below 20 µM; with HLA-B*08:01 it was 5.61 µM; with HLA-B*15:01 (setting [5]), not below 20 µM; in the experiment with HLA-B*27:05, not below 20 µM; with HLA-B*40:01, not below 20 µM. The dissociation constant Kd in the experiment with HLA-B*44:02 and in the experiment with HLA-B*58:01 was not below 20 µM throughout.
As a reminder, the IC50 is the point on the concentration scale where inhibition reaches its midpoint. As to FLCKQYLNL, the IC50 in the experiment with HLA-A*02:01 [3] (source organism: Hepatitis B virus) came out at 0.029 µM.
For CTWPEASRY, the Kd with HLA-A*02:01 [2] (setting [6]), in the experiment with HLA-A*02:03 (setting [6]), in the experiment with HLA-A*02:11 (setting [6]), with HLA-A*02:12 (setting [6]), with HLA-A*02:16 (setting [6]) and with HLA-A*02:19 (setting [6]) was not below 20 µM each time. Besides, the dissociation constant Kd is not below 20 µM with HLA-A*03:01 (setting [6]); not below 20 µM with HLA-A*24:03 (setting [6]); not below 20 µM with HLA-A*68:02 (setting [6]); not below 20 µM with HLA-A*69:01 (setting [6]); 0.026 µM with HLA-B*15:17 (setting [6]); not below 20 µM in the experiment with HLA-B*27:03 (setting [6]). In addition, the Kd with HLA-B*39:01 (setting [6]), with HLA-B*46:01 (setting [6]) and with HLA-B*51:01 [4] (setting [6]) was not below 20 µM in each case.
On to RLDKPLWLH, for which the Kd with HLA-A*02:01 [2] (setting [7]), with HLA-A*02:03 (setting [7]), with HLA-A*02:12 (setting [7]), in the experiment with HLA-A*02:16 (setting [7]), with HLA-A*02:19 (setting [7]) and with HLA-A*26:01 (setting [7]) was not below 20 µM throughout. In addition, the Kd in the experiment with HLA-A*68:02 (setting [7]), in the experiment with HLA-A*69:01 (setting [7]), in the experiment with HLA-B*15:01 (setting [7]), with HLA-B*18:01 (setting [7]), with HLA-B*27:03 (setting [7]) and in the experiment with HLA-B*39:01 (setting [7]) was not below 20 µM throughout. Besides, the Kd with HLA-B*46:01 (setting [7]), in the experiment with HLA-B*51:01 [4] (setting [7]) and with HLA-B*57:01 (setting [7]) was not below 20 µM in each case.
With SLYNLVAVL, the half-inhibitory concentration (IC50) with HLA-A*02:01 [3] (source organism: Human immunodeficiency virus 1) was 0.027 µM.
With RQASIELPSM, in the experiment with HLA-A*02:01 [3] (source organism: Homo sapiens), the IC50 amounted to 1.77 µM.
In the case of RTAKVRAFH, the Kd in the experiment with HLA-A*03:01 (setting [8]) was 0.241 µM; with HLA-A*11:01, 0.069 µM; in the experiment with HLA-A*30:01 (source organism: Salmonella enterica subsp. enterica serovar Choleraesuis str. SC-B67), 0.032 µM; with HLA-A*31:01 (setting [8]), 0.15 µM.
Regarding ALYIPPYEL, in the experiment with HLA-A*02:01 [3] (source organism: Rhinovirus A), the IC50 was 0.586 µM.
As for VLYRYGSFSV, in the experiment with HLA-A*02:01 [3] (source organism: Homo sapiens), the IC50 came to 0.0132 µM.
As for FSFFMNENF, the dissociation constant (Kd) with HLA-A*02:01 [2] (setting [9]), in the experiment with HLA-A*02:03 (setting [9]), in the experiment with HLA-A*02:11 (setting [9]), with HLA-A*02:12 (setting [9]), in the experiment with HLA-A*02:16 (setting [9]) and in the experiment with HLA-A*02:19 (setting [9]) was not below 20 µM each time. Besides, the Kd with HLA-A*03:01 (setting [9]) is not below 20 µM; in the experiment with HLA-A*24:03 (setting [9]), not below 20 µM; in the experiment with HLA-A*26:01 (setting [9]), not below 20 µM; with HLA-A*29:02, not below 20 µM; in the experiment with HLA-B*15:17 (setting [9]) it was not above 0.001 µM; with HLA-B*18:01 (setting [9]), not below 20 µM. In addition, the Kd with HLA-B*27:03 (setting [9]) was not below 20 µM; in the experiment with HLA-B*39:01 (setting [9]), not below 20 µM; with HLA-B*51:01 [4] (setting [9]) it was not below 20 µM; with HLA-B*57:01 (setting [9]), not below 20 µM; with HLA-B*15:42, not below 5 µM; with HLA-B*45:06 it was not below 5 µM. The Kd in the experiment with HLA-B*83:01 was not below 5 µM.
For GQPHSLASL, the Kd with HLA-B*48:01 was found to be 0.149 µM.

The record behind these values is the Immune Epitope Database (IEDB).
